Earlier results on one substance are cited in PMC8508939.

Broadly, the Kd is a measure of binding affinity in units of concentration.

For this data set, the target named is FoxP1 forkhead domain (Homo sapiens) (UniProt Q9H334).

For the substance “FoxP1 forkhead domain (from UniProt Q9H334)”, the Kd was 27 µM.
